Test results as given in doi:10.1101/2022.10.27.514150 (bioRxiv, 2022).
Values belong to the binder of their own block, whether it stands above or below them.

Experiments:
[1] = target: T1, minimal E2F4/DP1 heterodimer (E2F4s/DP1s) (human, UniProt Q16254 84-413; Q14186 199-350); test: pull-down
T1 sequence (looked up) 1: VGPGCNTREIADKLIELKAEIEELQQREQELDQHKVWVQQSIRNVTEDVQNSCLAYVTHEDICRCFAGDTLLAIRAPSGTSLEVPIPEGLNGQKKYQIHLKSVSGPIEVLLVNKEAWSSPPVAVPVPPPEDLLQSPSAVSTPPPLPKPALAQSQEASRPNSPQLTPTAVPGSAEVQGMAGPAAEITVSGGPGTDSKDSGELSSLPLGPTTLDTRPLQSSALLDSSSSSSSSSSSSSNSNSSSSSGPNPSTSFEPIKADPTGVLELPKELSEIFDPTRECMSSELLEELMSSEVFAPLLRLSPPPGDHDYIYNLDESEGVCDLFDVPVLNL
T1 sequence (looked up) 2: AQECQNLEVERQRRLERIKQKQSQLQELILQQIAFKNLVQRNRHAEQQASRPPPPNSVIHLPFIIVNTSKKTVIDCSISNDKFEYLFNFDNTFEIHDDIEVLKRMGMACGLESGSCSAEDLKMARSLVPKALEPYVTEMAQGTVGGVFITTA

[2] = target: T2, Gluc1-ΔNp73α FL (UniProt O15350-8 1-587); test: split reporter
T2 sequence (looked up): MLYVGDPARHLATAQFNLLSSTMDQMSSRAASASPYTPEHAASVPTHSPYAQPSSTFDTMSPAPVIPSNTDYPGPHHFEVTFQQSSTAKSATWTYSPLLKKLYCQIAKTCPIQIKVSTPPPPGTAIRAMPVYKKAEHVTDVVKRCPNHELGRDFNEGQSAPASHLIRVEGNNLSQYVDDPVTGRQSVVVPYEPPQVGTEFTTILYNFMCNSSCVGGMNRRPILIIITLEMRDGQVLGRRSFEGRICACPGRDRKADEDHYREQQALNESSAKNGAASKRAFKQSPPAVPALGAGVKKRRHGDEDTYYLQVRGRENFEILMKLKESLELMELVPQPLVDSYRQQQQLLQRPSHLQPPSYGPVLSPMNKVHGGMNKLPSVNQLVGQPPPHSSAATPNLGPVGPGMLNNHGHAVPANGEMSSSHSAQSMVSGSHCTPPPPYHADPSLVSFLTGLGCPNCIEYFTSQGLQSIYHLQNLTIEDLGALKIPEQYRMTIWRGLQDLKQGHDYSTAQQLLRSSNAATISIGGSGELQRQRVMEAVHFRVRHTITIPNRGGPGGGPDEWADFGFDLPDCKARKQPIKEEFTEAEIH

[3] = target: T3, Gluc1-ΔN(74–348) (UniProt O15350-8 74-348); test: split reporter
T3 sequence (looked up): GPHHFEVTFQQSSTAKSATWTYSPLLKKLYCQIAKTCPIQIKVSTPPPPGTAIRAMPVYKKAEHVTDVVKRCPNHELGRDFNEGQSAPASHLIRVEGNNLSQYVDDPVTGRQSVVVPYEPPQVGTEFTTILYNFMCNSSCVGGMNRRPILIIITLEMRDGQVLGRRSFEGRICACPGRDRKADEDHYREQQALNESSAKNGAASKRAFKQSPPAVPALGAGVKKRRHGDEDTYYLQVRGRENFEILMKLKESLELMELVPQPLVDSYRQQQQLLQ

[4] = target: T4, Gluc1-TAp73α (UniProt O15350 1-636); test: split reporter
T4 sequence (looked up): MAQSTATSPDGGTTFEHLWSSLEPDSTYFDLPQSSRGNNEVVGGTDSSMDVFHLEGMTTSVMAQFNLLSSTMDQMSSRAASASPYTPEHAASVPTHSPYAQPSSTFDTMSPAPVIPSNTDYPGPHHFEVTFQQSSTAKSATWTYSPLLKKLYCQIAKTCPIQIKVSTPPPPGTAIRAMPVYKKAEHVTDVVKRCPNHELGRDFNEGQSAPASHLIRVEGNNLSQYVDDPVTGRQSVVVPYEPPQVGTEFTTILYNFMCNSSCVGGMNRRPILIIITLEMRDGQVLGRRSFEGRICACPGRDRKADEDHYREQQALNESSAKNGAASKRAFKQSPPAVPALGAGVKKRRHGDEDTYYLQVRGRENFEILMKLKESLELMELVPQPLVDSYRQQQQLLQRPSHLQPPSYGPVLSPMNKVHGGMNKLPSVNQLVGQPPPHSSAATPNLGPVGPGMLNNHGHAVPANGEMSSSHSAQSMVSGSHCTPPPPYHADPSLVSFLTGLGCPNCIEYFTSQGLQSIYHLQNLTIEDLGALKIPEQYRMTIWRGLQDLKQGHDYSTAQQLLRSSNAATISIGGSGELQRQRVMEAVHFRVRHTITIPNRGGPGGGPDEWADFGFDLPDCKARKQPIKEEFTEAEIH

[5] = target: Gluc1-E2F4 (human, UniProt Q16254 1-413); test: split reporter

binding result [1]: binds
B1: MBP-ΔN(1-348) (domain or fragment, UniProt O15350-8 1-348, looked up)
chain: MLYVGDPARHLATAQFNLLSSTMDQMSSRAASASPYTPEHAASVPTHSPYAQPSSTFDTMSPAPVIPSNTDYPGPHHFEVTFQQSSTAKSATWTYSPLLKKLYCQIAKTCPIQIKVSTPPPPGTAIRAMPVYKKAEHVTDVVKRCPNHELGRDFNEGQSAPASHLIRVEGNNLSQYVDDPVTGRQSVVVPYEPPQVGTEFTTILYNFMCNSSCVGGMNRRPILIIITLEMRDGQVLGRRSFEGRICACPGRDRKADEDHYREQQALNESSAKNGAASKRAFKQSPPAVPALGAGVKKRRHGDEDTYYLQVRGRENFEILMKLKESLELMELVPQPLVDSYRQQQQLLQ

binding relative to ΔNp73α FL/E2F4 FL [2]: 60%
B2: Gluc2-E2F(1–336) (domain or fragment)
chain: not shown

binding relative to ΔNp73α FL/E2F4 FL [3]: 60% | binding response relative to ΔNp73α [4]: ~50% | normalized luminescence ratio (NLR) [2]: > 20
B3: Gluc2-E2F4 FL (natural protein)
chain: not shown

binding relative to ΔNp73α FL/E2F4 FL [2]: 20%
B4: Gluc2-E2F(1–90) (domain or fragment)
chain: not shown

normalized luminescence ratio (NLR) [5]: ~500
B5: Gluc2-DP1 (natural protein, human, UniProt Q14186 1-410, looked up)
chain: MAKDAGLIEANGELKVFIDQNLSPGKGVVSLVAVHPSTVNPLGKQLLPKTFGQSNVNIAQQVVIGTPQRPAASNTLVVGSPHTPSTHFASQNQPSDSSPWSAGKRNRKGEKNGKGLRHFSMKVCEKVQRKGTTSYNEVADELVAEFSAADNHILPNESAYDQKNIRRRVYDALNVLMAMNIISKEKKEIKWIGLPTNSAQECQNLEVERQRRLERIKQKQSQLQELILQQIAFKNLVQRNRHAEQQASRPPPPNSVIHLPFIIVNTSKKTVIDCSISNDKFEYLFNFDNTFEIHDDIEVLKRMGMACGLESGSCSAEDLKMARSLVPKALEPYVTEMAQGTVGGVFITTAGSTSNGTRFSASDLTNGADGMLATSSNGSQYSGSRVETPVSYVGEDDEEDDDFNENDEDD
